Here are results for one molecule from patent US10815297B2, “Antagonists of IL17C for the treatment of inflammatory disorders” (MorphoSys AG, priority 2011, dated 2020).

This test concerns mouse CIA model (DBA1/J mice). Briefly: Mouse collagen induced arthritis (CIA) model, therapeutic protocol. The format is in vivo. Particulars: 10 mg/kg, 3x week, i.p., day 31 to day 46. The method, then:
DBA1/J mice (male, 6-7 weeks old, approx 20 gram) were obtained from Centre d'Elevage Regional Janvier (Laval, France). Mice were kept on a 12 hr light/dark cycle (0700-1900). Temperature was maintained at 22° C., and food and water were provided ad libitum.
One day before the experiment, CII solution (2 mg/mL) was prepared with 0.05 M acetic acid and stored at 4° C. Just before the immunization, equal volumes of adjuvant […] and CII were mixed by a homogenizer in a pre-cooled glass bottle in an ice water bath. Extra adjuvant and prolonged homogenization may be required if an emulsion is not formed. 0.1 mL of the emulsion was injected intradermally at the base of the tail of each mouse on day 1, a second booster intradermal injection (CII solution at 2 mg/mL in […] 0.1 mLemulsion) was performed on day 21. This immunization method was modified from published methods (Brand et al, 2007, Collagen-induced arthritis. Nature Protocols; vol 2 (5): 1269-1275; Lin et al., 2007, Anti-rheumatic activities of histone deacetylase (HDAC) inhibitors in vivo in collagen-induced arthritis in rodents. Br J Pharmacol. April; 150 (7):829-31).
The therapeutic effects of the antibodies were tested in the mouse CIA model. Mice were randomly divided into equal groups and each group contained 10 mice. All mice were immunized on day 1 and boosted on day 21. Therapeutic dosing lasted from day 31 to day 46. The negative control group was treated with vehicle (PBS) and the positive control group with Enbrel (10 mg/kg, 3× week, i.p.). An antibody of interest was tested at 10 mg/kg, i.p. 3 times per week.
Anti-IL17C antibodies were administered i.p. three times a week at 10 mg/kg. […]
Arthritis was scored according to the method of Khachigian 2006 (Collagen antibody-induced arthritis. (2006) Nature Protocols 1, 2512-6), Lin et al 2007 (supra); Nishida et al. 2004 (Histone deacetylase inhibitor suppression of autoantibody-mediated arthritis in mice via regulation of p16INK4a and p21(WAF1/Cip1) expression. Arthritis Rheum. 10: 3365-76); and Brand et al. 2007 (supra). […]

B1: MOR12743: anti-mouse IL17C HuCAL antibody; CDRs SEQ ID NO: 31-36, VL 37, VH 38; human/mouse chimeric IgG2a (antibody, V domains shown)
VH: QVQLVQSGAEVKKPGASVKVSCKASGYTFTSNFIHWVRQAPGQGLEWMGWISPYNGDTNYAQKFQGRVTMTRDTSISTAYMELSRLRSEDTAVYYCARESVYYGSDYGYNGMDIWGQGTLVTVSS
VL: DIELTQPPSVSVSPGQTASITCSGDNLGEEYVSWYQQKPGQAPVLVIYDDTKRPSGIPERFSGSNSGNTATLTISGTQAEDEADYYCASWDLWSVEVFGGGTKLTVLGQ
modifications: mouse IgG2a constant regions; VH; VL
With B1, the “inhibition of inflammation / disease progression (clinical score)” value is “significant inhibition”.
